Here are results for five molecules from publication PMC5485662 (Nature medicine, 2016).

One may read the Kd as the equilibrium constant for the complex coming apart.

Assay [1] addresses HA ectodomain of wild-type A/California/07/2009 (pdm2009) (Influenza A virus A/California/07/2009 …). The experiment in a line: BLI. On the technique in general: BLI is a label-free optical method that tracks binding on a fibre tip over time.
Assay [2] concerns the target T1, HA of A/USSR/92/1977 (Influenza A virus A/USSR/92/1977 …, UniProt P03453, strain). Nature of the assay: cell-based or functional assay.
The target in assay [3] is T1, HA of A/USSR/92/1977. Nature of the assay: BLI.

B1: Fab of antibody D1 H1–53 (donor 1, 2011–12 cohort) (Fab, V domains shown)
VH: QVQLQESGPGLVKPSETLSLTCTVSGGSITNYFWSWIRQPPGKGLEWIGYISYSGSTNHNPSLKSRVTMSLDTSKKQFSLKLSSVTAADMAVYFCARGERFGESPYYSYHMDVWGQGTTVTVSS
VL: not shown
As to B1, in assay [1], the Kd is greater than 100 µM.

B2: Fab of antibody D1 H1–2 (donor 1, 2011–12 cohort) (Fab, V domains shown)
VH: QVQLQESGPGLVKPSETLSLRCAVSGSSISSLFYWGWIRQPPGKGPEWIGSIYHSGSTYYNPSLKSRVTISVDASKTQFSLNLNSVTAADTAVYYCAREYRILDERSNYFDAWGQGSPVTVSS
VL: SYELTQPPSVSVSPGQTVSITCSGDKMGDKYASWYQQKPGQSPFLVIYQDNKRPSGIPERFSGSNSGNTATLTISGTQAMDEADYYCQTWDISSGVVFGGGTKL
In assay [1], B2 registered a Kd greater than 100 µM.

B3: Fab of antibody D1 H1–12 (donor 1, 2011–12 cohort) (Fab, V domains shown)
VH: QVQLQESGPGLVKPSETLSLTCSVSGGSLNTYYWSWIRQPPGKGLEWIGYIYYSGNTNYNPSLKSRVAISVDTSKNQFSLKLTSVTAADTAVYYCARLYMVRGELWGFYFDHWGQGTLVTVSS
VL: QSVLTQPASVSGSPGQSITISCTGTSSDVGSYNLVSWYQHHPGKAPKLMIYEDIERPSGVSNRFSGSKSGNTASLTISGLQAEDEGDYYCCSYAGSSTSWVFGGGTKLTVL
Turning to B3, in assay [1], the dissociation constant Kd is greater than 100 µM.

B4: Fab of inferred intermediate I-2 of lineage CL6515 (Fab, V domains shown)
VH: EVQLVQSGAEVKKPGESLKISCKGSGYSFTSYWIGWVRQMPGKGLEWMGIIYPGDSDTRYSPSFQGQVTISADKSISTAYLQWSSLKASDTAMYYCARVVADREGFGYYYGMDVWGQGTTVTVSS
VL: EIVLTQSPGTLSLSPGERATLSCRASQSVDSSSLAWYQQKPGQAPRLLIYAASSRATGIPDRFSGSGSGTDFTLTISRLEPEDFAVYYCQQCGSSPWTFGQGTKVEIK
On to B4, for which, in the assay with HA of A/USSR/92/1977 [2], the “IC50 of neutralisation (microneutralization, MDCK cells) of A/USSR/92/1977 virus” value is 0.012 µg/mL. The molecule also had a Kd in the assay with HA of A/USSR/92/1977 [3] of 1.9 µM.

B5:  (Fab, V domains shown)
VH: EVQLVQSGAEVKKPGESLKISCKGSGYSFTSYWIGWVRQMPGKGLEWMGIIYPGDSDTRYSPSFQGQVTISADKSISTAYLQWSSLKASDTAMYYCARVVADREGFGYYYGMDVWGQGTTVTVSS
VL: not shown
B5: the Kd in assay [1] was greater than 50 µM.
